Measurements taken from patent publication US20080241129A1, “ADIPOCYTE SECRETED PROTEIN CCDC80 IS A POTENT STIMULATOR OF BONE FORMATION” (Wyeth, priority 2007, published 2008).

Tested on: neonatal mouse calvaria
Experiment: Neonatal calvaria organ culture assay (histomorphometry)
Format: cell-based
Protocol: Applicants used mouse neonatal calvaria organ culture assay to examine possible roles for Ccdc80 in bone formation/resorption. Neonatal mouse calvaria were prepared from 4-day-old pups as described previously (Traianedes K et al., Endocrinology 139:3178-84 (1998); Mundy G et al., Science 286:1946-49 (1999)). Briefly, calvaria were excised and cut in half along the sagittal suture. Each half calvaria was placed with the concave surface downward on a stainless steel grid (Small Parts, Inc., Miami, Fla.) in a 12-well tissue culture dish (Becton Dickinson, Oxnard, Calif.). Calvaria were pre-incubated overnight in serum-free BGJ medium with 0.1% BSA. Each well contained 1 ml of BGJ medium. After pre-incubation, calvaria were incubated for 7 days in BGJ medium containing 1% FBS without or with test samples. Calvaria in 12-well plates were incubated in a humidified atmosphere of 95% air and 5% CO2. Fresh test samples were added at the time of medium change on day 4.
After organ culture, calvaria were fixed in 10% neutral phosphate-buffered formaldehyde at room temperature for 72 hours, then decalcified for 5-6 hours in 10% EDTA in PBS. Calvaria in each group were embedded in parallel in the same paraffin block, and 4 μm sections were stained with hematoxylin-eosin. Consistent bone areas (200 μm away from frontal sutures) were selected for histomorphometric analysis. In brief, a 200 μm square grid was placed on each calvaria, and the number of osteoblasts and total bone area were determined with the Osteomeasure System (Osteometrics Inc., Atlanta, Ga.). All cells on the bone surface were counted as osteoblasts.
For this experiment, calvaria were prepared from 4-day old neonatal pups. Calvaria then were incubated for 7 days without (Control), or with serial dilutions of FLAG-purified Ccdc80 protein as shown in FIG. 4. Medium was changed on day 4. After organ culture, calvaria were fixed in 10% neutral phosphate buffered formaldehyde, embedded in paraffin block, sectioned at 4 μm, and stained with hematoxylin and Eosin for histomorphoemetric analysis.

[1] = 1% FLAG-purified Ccdc80 protein, 7 days

B1: FLAG-purified Ccdc80 protein: C-terminally FLAG-tagged human Ccdc80 purified from conditioned medium using anti-FLAG M2 affinity beads (protein)
chain: EPHPHATIRGSHGGRKVPLVSPDSSRPARFLRHTGRSRGIERSTLEEPNLQPLQRRRSVPVLRLARPTEPPARSDINGAAVRPEQRPAARGSPREMIRDEGSSARSRMLRFPSGSSSPNILASFAGKNRVWVISAPHASEGYYRLMMSLLKDDVYCELAERHIQQIVLFHQAGEEGGKVRRITSEGQILEQPLDPSLIPKLMSFLKLEKGKFGMVLLKKTLQVEERYPYPVRLEAMYEVIDQGPIRRIEKIRQKGFVQKCKASGVEGQVVAEGNDGGGGAGRPSLGSEKKKEDPRRAQVPPTRESRVKVLRKLAATAPALPQPPSTPRATTLPPAPATTVTRSTSRAVTVAARPMTTTAFPTTQRPWTPSPSHRPPTTTEVITARRPSVSENLYPPSRKDQHRERPQTTRRPSKATSLESFTNAPPTTISEPSTRAAGPGRFRDNRMDRREHGHRDPNVVPGPPKPAKEKPPKKKAQDKILSNEYEEKYDLSRPTASQLEDELQVGNVPLKKAKESKKHEKLEKPEKEKKKKMKNENADKLLKSEKQMKKSEKKSKQEKEKSKKKKGGKTEQDGYQKPTNKHFTQSPKKSVADLLGSFEGKRRLLLITAPKAENNMYVQQRDEYLESFCKMATRKISVITIFGPVNNSTMKIDHFQLDNEKPMRVVDDEDLVDQRLISELRKEYGMTYNDFFMVLTDVDLRVKQYYEVPITMKSVFDLIDTFQSRIKDMEKQKKEGIVCKEDKKQSLENFLSRFRWRRRLLVISAPNDEDWAYSQQLSALSGQACNFGLRHITILKLLGVGEEVGGVLELFPINGSSVVEREDVPAHLVKDIRNYFQVSPEYFSMLLVGKDGNVKSWYPSPMWSMVIVYDLIDSMQLRRQEMAIQQSLGMRCPEDEYAGYGYHSYHQGYQDGYQDDYRHHESYHHGYPY
modifications: left off: small tags and cut ends
bone resorption (histologically) [1]: enhanced
number of osteoblasts [1]: not significantly altered
osteoblast activation [1]: activated
increase in total bone area (1% FLAG-purified Ccdc80 protein, 7 days, P<0.0001): 62%
osteogenic activities (purified protein sample diluted as low as 0.01%, 7 days): clearly observed
number of osteoblasts (summary) (summary statement): unaltered
osteoblast activation (summary) (summary statement): activated osteoblasts
